Biological target: the molecule itself
Assay: SEC-MALS

B1: Lcl C-terminal domain (Lcl-CTD), residues 252 to 401 (domain or fragment)
chain: MAHHHHHHVDDDDKMETGQVLAKSNDLDFNTMWVDPANSGIRRQLGDKALGGTVIYVNALGTHGLVVANSDQVNSNTWWDAQDSITNPAHFDNEGKLYSDWRLPTRFELNLIYMMRNELGNFLAGNYWSSIEKSSANSWVFNSKTGEIKDIAKSKTAAVRAVRAF
stoichiometry N: 3

— publication doi:10.1101/2023.12.10.570962 (bioRxiv, 2023)
